Results: patent US9988424 (DUKE UNIVERSITY, dated 2018)
Like-named read-outs stand apart in the source and are kept apart here.

Assays:
B.Case A2 V1/V2 Tags [1] = target: T1, B.Case A2 V1/V2 Tags; test: ELISA, OD405
T1 Env construct: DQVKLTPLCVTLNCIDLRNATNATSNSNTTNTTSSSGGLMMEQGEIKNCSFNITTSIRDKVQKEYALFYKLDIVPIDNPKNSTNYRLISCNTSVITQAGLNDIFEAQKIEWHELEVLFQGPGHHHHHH

Con 6 gp120 [2] = test: ELISA, OD405
D.9009SA V1V2 Tags [3] = target: T2, D.9009SA V1V2 Tags; test: ELISA, OD405
T2 Env construct: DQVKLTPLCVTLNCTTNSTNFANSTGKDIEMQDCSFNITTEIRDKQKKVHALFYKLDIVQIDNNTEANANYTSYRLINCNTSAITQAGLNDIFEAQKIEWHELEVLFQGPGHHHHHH

B.63521_V1/V2 tags = test: ELISA, OD405 at 10 ug/ml
B.con gp140CF [4] = test: ELISA, OD405 at 10 ug/ml
C.1086 gp140 [5] = target: T3, C.1086 gp140; test: ELISA, OD405 at 10 ug/ml
T3 construct: also called C.1086gp140C

G.con gp140CF [6] = test: ELISA, OD405 at 10 ug/ml
AE.A244 gp120 delta 11 = target: T4, AE.A244 gp120 delta 11 (HIV-1); test: ELISA, OD405 at 10 ug/ml
T4 construct: also called E.A244gp120Δ11; AE.A244 Δ11 gp120

C.CAP206 gp140CF.12 = C.CAP206 gp140CF.12 (HIV-1); test: ELISA, OD405 at 10 ug/ml
AE.97CNG2XF gp140CF = target: T5, AE.97CNG2XF gp140CF (HIV-1); test: ELISA, OD405 at 10 ug/ml
T5 construct: also called E.97CNGX2F gp140CF

SIV CPZ US-1 gp140CF = target: T6, SIV CPZ US-1 gp140CF (SIVcpz); test: ELISA, OD405 at 10 ug/ml
T6 construct: also called US-1 SIVCPZ gp140CF
T6 chain: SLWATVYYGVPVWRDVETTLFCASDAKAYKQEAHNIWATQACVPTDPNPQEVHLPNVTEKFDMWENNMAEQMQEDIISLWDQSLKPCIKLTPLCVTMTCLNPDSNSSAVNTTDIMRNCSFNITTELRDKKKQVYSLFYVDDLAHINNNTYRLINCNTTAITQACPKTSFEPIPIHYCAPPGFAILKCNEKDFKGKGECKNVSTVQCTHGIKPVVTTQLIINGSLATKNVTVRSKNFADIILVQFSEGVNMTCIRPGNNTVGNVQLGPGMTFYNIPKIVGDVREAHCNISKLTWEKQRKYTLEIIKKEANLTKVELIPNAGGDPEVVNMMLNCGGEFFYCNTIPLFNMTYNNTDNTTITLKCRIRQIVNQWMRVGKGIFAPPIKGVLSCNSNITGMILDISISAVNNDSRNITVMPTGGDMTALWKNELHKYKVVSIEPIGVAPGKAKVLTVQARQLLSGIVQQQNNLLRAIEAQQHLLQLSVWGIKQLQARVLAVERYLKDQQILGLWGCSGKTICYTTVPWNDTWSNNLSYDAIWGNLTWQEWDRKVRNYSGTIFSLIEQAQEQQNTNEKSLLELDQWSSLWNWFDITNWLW

A.9004SS V1V2 Tags = target: T7, A.9004SS V1V2 Tags; test: ELISA, OD405
T7 Env construct: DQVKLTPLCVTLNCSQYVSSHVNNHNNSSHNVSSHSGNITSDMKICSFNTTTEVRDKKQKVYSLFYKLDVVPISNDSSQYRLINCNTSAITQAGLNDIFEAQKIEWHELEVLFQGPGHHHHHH

AE.con gp140CF = target: T8, AE.con gp140CF; test: ELISA, OD405
T8 construct: also called AE.con.env03 gp140CF

B. 681-7 gp140C = test: ELISA, OD405
B. 684-6 gp140C = test: ELISA, OD405
B.040 gp140C = test: ELISA, OD405
B.62357 140C = target: T9, B.62357 140C; test: ELISA, OD405
T9 construct: also called B.62357 gp140C

B.63521 gp140C = test: ELISA, OD405
B.63521_V1V2 Tags = target: T10, B.63521_V1V2 Tags; test: ELISA, OD405
T10 Env construct: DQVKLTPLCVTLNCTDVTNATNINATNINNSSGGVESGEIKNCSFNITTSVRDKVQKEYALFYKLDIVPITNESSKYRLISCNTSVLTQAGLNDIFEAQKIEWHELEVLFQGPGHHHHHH

B.Case A2 V1/V2 Tags [7] = target: T1, B.Case A2 V1/V2 Tags; test: ELISA, OD405
B.con gp140CF [8] = target: T11, B.con gp140CF; test: ELISA, OD405
T11 construct: also called B.con.env03 gp140CF

C.1086 gp140 [9] = target: T12, C.1086 gp140; test: ELISA, OD405
T12 construct: also called C.1086gp140C

Con 6 gp120 [10] = test: ELISA, OD405; remark: listed apart in the source
D.9009SA V1V2 Tags [11] = target: T2, D.9009SA V1V2 Tags; test: ELISA, OD405
G.con gp140CF [12] = target: T13, G.con gp140CF; test: ELISA, OD405
T13 construct: also called G.con.env03 gp140CF

B.HXB/BAL gp140CFI = target: T14, B.HXB/BAL gp140CFI (HIV-1, UniProt P04578 33-680); test: ELISA, OD405
T14 construct: also called B.HxB/Ba gp140 CFI

C.1086 gp120 = C.1086 gp120 (HIV-1); test: ELISA, OD405

Measured: binding result

B1: 697D reverted unmutated ancestor antibody (antibody, V domains shown)
VH: QVQLVQSGAEVKKPGSSVKVSCKASGGTFSSYTISWVRQAPGQGLEWMGRIIPILGIANYAQKFQGRVTITADKSTSTAYMELSSLRSEDTAVYYCATSGVGLHFGYFDYWGQGTLVTVSS
VL: QSVLTQPPSVSGAPGQRVTISCTGSSSNIGAGYDVHWYQQLPGTAPKLLIYGNSNRPSGVPDRFSGSKSGTSASLAITGLQAEDEADYYCQSYDSSLSGYVFGTGTKVTVL
notes: also called 697D RUA
no binding (tested: 10 ug/ml): B.Case A2 V1/V2 Tags [1] | Con 6 gp120 [2] | D.9009SA V1V2 Tags [3]

B2: PG16 reverted unmutated ancestor antibody (antibody, V domains shown)
VH: QVQLVESGGGVVQPGRSLRLSCAASGFTFSSYGMHWVRQAPGKGLEWVAVISYDGSNKYYADSVKGRFTISRDNSKNTLYLQMNSLRAEDTAVYYCAREAGGPIWHDDVKYYDFNDGYYYYYYMDVWGKGTTVTVSS
VL: QSALTQPASVSGSPGQSITISCTGTSSDVGSYNLVSWYQQHPGKAPKLMIYEVSKRPSGVSNRFSGSKSGNTASLTISGLQAEDEADYYCCSLTDRSHRIFGGGTKLTVL
notes: also called PG16 RUA; PG16_RUA
no binding (tested: 10 ug/ml): B.63521_V1/V2 tags | B.con gp140CF [4] | C.1086 gp140 [5] | G.con gp140CF [6] | AE.A244 gp120 delta 11 | C.CAP206 gp140CF.12 | AE.97CNG2XF gp140CF | SIV CPZ US-1 gp140CF

B3: CH59 reverted unmutated ancestor antibody (antibody, V domains shown)
VH: EVQLVESGGGLVQPGRSLRLSCAASGFTFDDYAMHWVRQAPGKGLEWVSGISWNSGSIGYADSVKGRFTISRDNAKNSLYLQMNSLRAEDTALYYCAKDSPRGELPFDYWGQGTLVTVSS
VL: SYELTQPPSVSVSPGQTARITCSGDALPKKYAYWYQQKSGQAPVLVIYEDSKRPSGIPERFSGSSSGTMATLTISGAQVEDEADYYCYSTDSSGNHRVFGGGTKLTVL
notes: also called CH59 RUA; CH59_RUA
not listed: B.Case A2 V1/V2 Tags [1] | Con 6 gp120 [2] | D.9009SA V1V2 Tags [3] | B.63521_V1/V2 tags | B.con gp140CF [4] | C.1086 gp140 [5] | G.con gp140CF [6] | AE.A244 gp120 delta 11 | C.CAP206 gp140CF.12 | AE.97CNG2XF gp140CF | SIV CPZ US-1 gp140CF
no binding (tested: 10 ug/ml): all other assays above
